# Source: paper PMC3792905, “HIV-1 Vpr Induces the Degradation of ZIP and sZIP, Adaptors of the NuRD Chromatin Remodeling Complex, by Hijacking DCAF1/VprBP” (PLoS ONE, 2013)
# Columns and labels:
# DCAF1 [1] = biological target: DCAF1 (UniProt Q9Y4B6)
# DCAF1 [2] = biological target: DCAF1 (UniProt Q9Y4B6 1-1507); assay: cell-based or functional assay
# DCAF1 (UniProt Q9Y4B6 1-1507), sequence (Q9Y4B6 whole entry): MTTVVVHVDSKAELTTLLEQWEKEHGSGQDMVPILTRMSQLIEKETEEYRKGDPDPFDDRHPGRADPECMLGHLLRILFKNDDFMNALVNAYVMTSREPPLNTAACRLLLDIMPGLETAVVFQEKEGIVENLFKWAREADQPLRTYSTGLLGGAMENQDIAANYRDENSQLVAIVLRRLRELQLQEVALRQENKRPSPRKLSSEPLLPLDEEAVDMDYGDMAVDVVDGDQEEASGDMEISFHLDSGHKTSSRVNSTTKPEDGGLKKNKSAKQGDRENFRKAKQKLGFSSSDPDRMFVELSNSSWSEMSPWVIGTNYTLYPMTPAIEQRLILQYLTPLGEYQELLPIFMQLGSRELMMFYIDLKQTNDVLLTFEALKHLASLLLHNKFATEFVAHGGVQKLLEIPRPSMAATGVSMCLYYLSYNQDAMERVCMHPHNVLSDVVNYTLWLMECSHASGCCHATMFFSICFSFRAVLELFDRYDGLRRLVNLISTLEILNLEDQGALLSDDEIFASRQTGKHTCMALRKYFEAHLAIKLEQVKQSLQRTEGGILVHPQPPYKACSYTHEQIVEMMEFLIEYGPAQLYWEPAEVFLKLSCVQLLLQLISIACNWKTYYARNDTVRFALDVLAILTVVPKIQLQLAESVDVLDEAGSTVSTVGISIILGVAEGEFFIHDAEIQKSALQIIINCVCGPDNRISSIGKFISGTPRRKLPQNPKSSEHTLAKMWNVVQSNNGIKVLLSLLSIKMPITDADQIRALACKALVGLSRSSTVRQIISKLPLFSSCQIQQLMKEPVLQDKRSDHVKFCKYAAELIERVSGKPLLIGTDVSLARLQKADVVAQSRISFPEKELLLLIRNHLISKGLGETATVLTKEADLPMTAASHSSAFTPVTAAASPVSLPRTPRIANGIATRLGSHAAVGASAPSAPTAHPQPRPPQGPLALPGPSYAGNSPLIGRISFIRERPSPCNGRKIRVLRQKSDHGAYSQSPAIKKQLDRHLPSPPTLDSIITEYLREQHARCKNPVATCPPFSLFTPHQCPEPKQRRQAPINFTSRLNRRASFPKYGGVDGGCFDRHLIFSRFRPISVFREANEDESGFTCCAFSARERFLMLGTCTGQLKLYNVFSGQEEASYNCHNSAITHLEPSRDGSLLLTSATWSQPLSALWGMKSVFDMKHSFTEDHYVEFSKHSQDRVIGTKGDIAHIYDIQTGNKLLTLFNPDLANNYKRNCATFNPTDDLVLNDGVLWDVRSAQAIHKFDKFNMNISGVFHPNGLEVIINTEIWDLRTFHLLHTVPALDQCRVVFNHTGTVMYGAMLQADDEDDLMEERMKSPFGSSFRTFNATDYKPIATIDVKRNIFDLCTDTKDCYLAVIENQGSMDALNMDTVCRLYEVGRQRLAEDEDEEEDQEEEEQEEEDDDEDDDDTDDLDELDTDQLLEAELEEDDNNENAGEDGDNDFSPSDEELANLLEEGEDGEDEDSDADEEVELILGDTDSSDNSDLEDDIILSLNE
# DCAF1 (UniProt Q9Y4B6), sequence (Q9Y4B6 whole entry): as above
Molecule,sZIP expression (FLAG/GFP signal ratio by Western blot) left in HeLa cells co-expressing FLAG-sZIP and the HA-tagged Vpr protein (DCAF1 [1]),sZIP expression (FLAG/GFP signal ratio by Western blot) left in HeLa cells co-expressing FLAG-sZIP and the HA-tagged Vpr protein (DCAF1 [2])
VprQ65R (from UniProt P05928 1-96) (natural protein),50%,
HA-tagged Vpr from HIV-1 LAI (natural protein) MEQAPEDQGPQREPHNEWTLELLEELKNEAVRHFPRIWLHGLGQHIYETYGDTWAGVEAIIRILQQLLFIHFRIGCRHSRIGVTQQRRARNGASRS,,< 15%
